Results: patent publication US20170056486A1

Each binder was assayed against HLA-A*24 (human) (assay: UV-exchange ELISA (anti-b2m); yield <20%).

| peptide exchange yield [%] | Binder |
| --- | --- |
| < 20 | TYKDYVDLF |

These binders were tested against HLA-A*24 (human) (assay: UV-exchange ELISA (anti-b2m); yield >=75%).

| peptide exchange yield [%] | Binder |
| --- | --- |
| > 75 | KYTHFIQSF |
| > 75 | AYKSEVVYF |
| > 75 | EYLQNLNHI |
| > 75 | KFDDVTMLF |
| > 75 | NYENKQYLF |
| > 75 | NYGVLHVTF |
| > 75 | VFIAQGYTL |
| > 75 | NYMPGQLTI |
| > 75 | QFITSTNTF |
| > 75 | VFIDHPVHL |
| > 75 | KYSDVKNLI |
| > 75 | VYTGIDHHW |

The binders below were run against HLA-A*24 (human) (assay: UV-exchange ELISA (anti-b2m); yield 20%-49%).

| peptide exchange yield [%] | Binder |
| --- | --- |
| 20 to 49 | AYSHLRYVF |
| 20 to 49 | IFITKALQI |
| 20 to 49 | SYAELGTTI |
| 20 to 49 | KFFDDLGDELLF |
| 20 to 49 | SFLNIEKTEILF |
| 20 to 49 | MYLKLVQLF |
| 20 to 49 | VYNYAEQTL |
| 20 to 49 | KYLSVQLTL |
| 20 to 49 | VYTPVLEHL |
| 20 to 49 | VYPDTVALTF |
| 20 to 49 | DYVGFTLKI |
| 20 to 49 | SYAPPSEDLFL |
| 20 to 49 | VFLPRVTEL |
| 20 to 49 | YFIKSPPSQLF |
| 20 to 49 | LYQDHMQYI |
| 20 to 49 | SYVASFFLL |
| 20 to 49 | SYAPPSEDLF |
| 20 to 49 | KYYRQTLLF |
| 20 to 49 | VYNAVSTSF |
| 20 to 49 | KYPDIASPTF |
| 20 to 49 | KYTSYILAF |
